Data reported in the supplement of paper PMC11246515.
± gives the standard deviation of the averaged measurements.

Experiment: total protein half-life in vivo (active degradation + dilution); higher = more stable protein
[1] = E. coli NCM3722 delta-clpP delta-lon delta-hslV, growth: N-lim chemostat, doubling time 6 h
[2] = E. coli NCM3722 delta-clpP, growth: N-lim chemostat, doubling time 6 h
[3] = E. coli NCM3722 delta-hslV, growth: N-lim chemostat, doubling time 6 h
[4] = E. coli NCM3722 delta-lon, growth: N-lim chemostat, doubling time 6 h
[5] = E. coli NCM3722 delta-smpB, growth: N-lim chemostat, doubling time 6 h
[6] = wild type E. coli NCM3722, growth: C-lim chemostat, doubling time 12 h
[7] = wild type E. coli NCM3722, growth: N-lim chemostat, doubling time 6 h
[8] = wild type E. coli NCM3722, growth: N-lim chemostat, doubling time 12 h
[9] = wild type E. coli NCM3722, growth: P-lim chemostat, doubling time 6 h
[10] = wild type E. coli NCM3722, growth: P-lim chemostat, doubling time 12 h
[11] = wild type E. coli NCM3722, growth: C-lim chemostat, doubling time 3 h
[12] = wild type E. coli NCM3722, growth: C-lim chemostat, doubling time 6 h

Sequence	total protein half-life in vivo [1] [h]	total protein half-life in vivo [2] [h]	total protein half-life in vivo [3] [h]	total protein half-life in vivo [4] [h]	total protein half-life in vivo [5] [h]	total protein half-life in vivo [6] [h]	total protein half-life in vivo [7] [h]	total protein half-life in vivo [8] [h]	total protein half-life in vivo [9] [h]	total protein half-life in vivo [10] [h]	total protein half-life in vivo [11] [h]	total protein half-life in vivo [12] [h]
MRVLLFLLLSLFMLPAFSADNLLRWHDAQHFTVQASTPLKAKRAWKLCALYPSLKDSYWLSLNYGMQEAARRYGVDLKVLEAGGYSQLATQQAQIDQCKQWGAEAILLGSSTTSFPDLQKQVASLPVIELVNAIDAPQVKSRVGVPWFQMGYQPGRYLVQWAHGKPLNVLLMPGPDNAGGSKEMVEGFRAAIAGSPVRIVDIALGDNDIEIQRNLLQEMLERHPEIDVVAGTAIAAEAAMGEGRNLKTPLTVVSFYLSHQVYRGLKRGRVIMAASDQMVWQGELAVEQAIRQLQGQSVSDNVSPPILVLTPKNADREHIRRSLSPGGFRPVYFYQHTSAAKK	6.15 ± 0.33	5.43 ± 0.75	3.15 ± 0.62	4.15 ± 1.5	3.08	4.04	3.87 ± 1.8	9.91 ± 3.2	4.02	6.77 ± 2.5		
MRVNNGLTPQELEAYGISDVHDIVYNPSYDLLYQEELDPSLTGYERGVLTNLGAVAVDTGIFTGRSPKDKYIVRDDTTRDTFWWADKGKGKNDNKPLSPETWQHLKGLVTRQLSGKRLFVVDAFCGANPDTRLSVRFITEVAWQAHFVKNMFIRPSDEELAGFKPDFIVMNGAKCTNPQWKEQGLNSENFVAFNLTERMQLIGGTWYGGEMKKGMFSMMNYLLPLKGIASMHCSANVGEKGDVAVFFGLSGTGKTTLSTDPKRRLIGDDEHGWDDDGVFNFEGGCYAKTIKLSKEAEPEIYNAIRRDALLENVTVREDGTIDFDDGSKTENTRVSYPIYHIDNIVKPVSKAGHATKVIFLTADAFGVLPPVSRLTADQTQYHFLSGFTAKLAGTERGITEPTPTFSACFGAAFLSLHPTQYAEVLVKRMQAAGAQAYLVNTGWNGTGKRISIKDTRAIIDAILNGSLDNAETFTLPMFNLAIPTELPGVDTKILDPRNTYASPEQWQEKAETLAKLFIDNFDKYTDTPAGAALVAAGPKL	4.17 ± 0.081	3.55 ± 0.13	3.29 ± 0.037	4.19 ± 0.05	3.45 ± 0.21	10.5 ± 0.7	3.69 ± 0.2	5.13 ± 0.55	5.5 ± 0.58	10.7 ± 0.72	3.53 ± 0.18	6.17 ± 0.42
MRVTDFSFELPESLIAHYPMPERSSCRLLSLDGPTGALTHGTFTDLLDKLNPGDLLVFNNTRVIPARLFGRKASGGKIEVLVERMLDDKRILAHIRASKAPKPGAELLLGDDESINATMTARHGALFEVEFNDERSVLDILNSIGHMPLPPYIDRPDEDADRELYQTVYSEKPGAVAAPTAGLHFDEPLLEKLRAKGVEMAFVTLHVGAGTFQPVRVDTIEDHIMHSEYAEVPQDVVDAVLAAKARGNRVIAVGTTSVRSLESAAQAAKNDLIEPFFDDTQIFIYPGFQYKVVDALVTNFHLPESTLIMLVSAFAGYQHTMNAYKAAVEEKYRFFSYGDAMFITYNPQAINERVGE [P0A7F9]	4.09 ± 0.78	3.64 ± 0.2	4.44 ± 1.4	4.49 ± 0.24	3.41 ± 0.096	7.45 ± 0.19	3.66 ± 0.14	5.03 ± 0.34	5.46 ± 0.24	9.48 ± 0.17	2.85 ± 0.04	4.82 ± 0.32
MRYDKELTENEMIRQKILQQLLEWIECNLEHPISIEDIAQKSGYSRRNIQLLFRNFMHVPLGEYIRKRRLCRAAILVRLTAKSMLDIALSLHFDSQQSFSREFKKLFGCSPREYRHRDYWDLANIFPSFLIRQQQKTECRLINFPETPIFGNSFKYDIEVSNKSPDEEVKLRRHHLARCMKNFKTDIYFVSTFEPSTKSVDLLTVETFAGTVCEYADMPKEWTTTRGLYDPTHVIWTQA	> 8											
MRYHGDMLLTTPVISTLKQNYPDAKIDMLLYQDTIPILSENPEINALYGISNKGAGTFDKIKNVLSLIKTLRANNYDLVINLTDQWMVALLVRCLPARMKISQLYGHRQHGIWKKSFTHLAPIHGTHIVERNLSVLEPLGITDFYTDTTMSYAEDCWKKMRRELDALGVKDHYVVIQPTARQIFKCWDNDKFSKVIDALQQRGYQVVLTCGPSADDLACVDEIARGCETKPITGLAGKTRFPELGALIDHAVLFIGVDSAPGHIAAAVKTPVISLFGATDHVFWRPWTENIIQFWAGNYQKMPTRHELDRNKKYLSVIPAEDVIAATEKLLPEDAPSADRNAQL	6.088 ± 0.042	6.21 ± 0.39	6.87 ± 0.63		4.85 ± 0.32	11.7 ± 0.39	5.89 ± 0.19	11.9 ± 0.99	5.59 ± 0.42	11.3 ± 1.1	3.141 ± 0.0067	6.09 ± 0.63
MRYIKSITQQKLSFLLAIYIGLFMNGAVFYRRFGSYAHDFTVWKGISAVVELAATVLVTFFLLRLLSLFGRRSWRILASLVVLFSAGASYYMTFLNVVIGYGIIASVMTTDIDLSKEVVGLNFILWLIAVSALPLILIWNNRCRYTLLRQLRTPGQRIRSLAVVVLAGIMVWAPIRLLDIQQKKVERATGVDLPSYGGVVANSYLPSNWLSALGLYAWARVDESSDNNSLLNPAKKFTYQAPQNVDDTYVVFIIGETTRWDHMGIFGYERNTTPKLAQEKNLAAFRGYSCDTATKLSLRCMFVRQGGAEDNPQRTLKEQNIFAVLKQLGFSSDLYAMQSEMWFYSNTMADNIAYREQIGAEPRNRGKPVDDMLLVDEMQQSLGRNPDGKHLIILHTKGSHFNYTQRYPRSFAQWKPECIGVDSGCTKAQMINSYDNSVTYVDHFISSVIDQVRDKKAIVFYAADHGESINEREHLHGTPRELAPPEQFRVPMMVWMSDKYLENPANAQAFAQLKKEADMKVPRRHVELYDTIMGCLGYTSPDGGINENNNWCHIPQAKEAAAN	4 ± 0.3		4.35 ± 1.7	6.45 ± 0.89	3.61 ± 0.3	8.037 ± 0.012	5.66 ± 0.37	8.75 ± 0.59	4.14 ± 1.1	6.76 ± 1.3	2.87 ± 0.19	4.84 ± 0.023
MRYPVTLTPAPEGGYMVSFVDIPEALTQGETVAEAMEAAKDALLTAFDFYFEDNELIPLPSPLNSHDHFIEVPLSVASKVLLLNAFLQSEITQQELARRIGKPKQEITRLFNLHHATKIDAVQLAAKALGKELSLVMV									1.45	3.2 ± 0.94		
MRYSKLTMLIPCALLLSACTTVTPAYKDNGTRSGPCVEGGPDNVAQQFYDYRILHRSNDITALRPYLSDKLATLLSDASRDNNHRELLTNDPFSSRTTLPDSAHVASASTIPNRDARNIPLRVDLKQGDQGWQDEVLMIQEGQCWVIDDVRYLGGSVHATAGTLRQSIENR		5.61 ± 1.2	6.1159 ± 0.0003		6.06 ± 0.54	12.9 ± 1	6.03 ± 0.21	12.6 ± 1.1	6.22 ± 0.44	13.7 ± 0.35	2.89 ± 0.099	6.3 ± 0.064
